Reference: patent publication US8653242B2, “Therapeutic antibodies against flagellated Pseudomonas aeruginosa” (priority 2010, dated 2014)

Experiments:
[1] = system: Ka02 multi-drug resistant P. Aeruginosa strain; test: Antibiogram of Ka02 (Vitek MIC); assay type: cell-based; details: Ka02; for Final (sensitive/resistant call): key: S = antibiotic sensitive; R = antibiotic resistance
Ka02 (MDR P. aeruginosa) = test: Mouse model of pneumonia driven by Ka02; assay type: in vivo, C57 Black mice; details: for Animal survival at day 3: Ka02 lung infection, treatment from 1 hr post-infection; for Animal survival at day 3 / survivors at day 3: unchanged at day 9; for survivors at day 3: survivors/animals in group
Experimental: Sixty-one (61) male Adult C57 Black mice (25-30 g, Harlan Nossan, Milan, Italy) were housed in a controlled environment in cages with filter tops in specific pathogen-free conditions. They were briefly anesthetized with inhaled sevorane (Abbot Laboratories) in an oxygenated chamber and placed in a supine position with their heads elevated approximately 30°. Ka02 bacterial inoculums (10^6 cfu's in 50 μl of lactated Ringer's solution) were instilled slowly into the left lung of each animal using a gavage needle.
Mice were randomly divided into 3 experimental treatment groups as follows:
a) Saline-Treated (n=20): saline administered i.v. 1 hr after infection followed by one further i.p. administration at 5 hr post-infection; b) LST-002-Treated (n=21): LST-002 given i.v. 1 hr after infection at a dose of 20 mg/kg followed by one further i.p. administration at 5 hr post-infection at a dose of 15 mg/kg; c) Positive control-Imipenem-Treated (n=20): “Tienam” (Merck, Sharpe and Dohme)] (active ingredient, imipenem, a carbapenem antibiotic) given i.p. 1 hr after infection at a dose of 25 mg/kg followed by further i.p. administrations at 25 mg/kg at time points of 5 hr, 24 hr, 29 hr, 48 hr and 53 hr following infection.
Survival was monitored for all groups every 12 hrs until day 9 post-infection and data depicted in Kaplan-Meier curves (FIG. 18). […] Survival at day 9 was unchanged from survival data observed at day 3, i.e. LST-002 was 240% more efficacious in increasing survival in mice with pneumonia than a currently accepted treatment protocol and increased survival by 700% as compared with untreated mice.

MDR PA strain Ka02 = test: Neutropenic mouse thigh muscle infection model; assay type: in vivo, CD-1 mice
Experimental: Female CD-1 mice weighing 23-27 g (3-5 weeks in age) were rendered neutropenic by split i.p. administration of cyclophosphamide at doses of 150 mg/kg and 100 mg/kg on days 0 and +3. On day 4, 50 μl of freshly-grown Ka02 (2×10^7 cfu's per ml) was injected at a depth of 5 mm into the right thigh muscle (“ipsilateral”) whereas an equivalent volume of saline was injected into the left thigh muscle (“contralateral”). Over an ensuing 3 day period (days 5-7, i.e. 24, 48 and 72 hr following Ka02 administration), the surface areas of the infected thigh muscle lesions were measured with calipers in both ipsilateral and contralateral muscles. Ratios of surface areas of infection lesions of ipsilateral muscles divided by contralateral muscle lesions were calculated with ratios >1 indicative of Ka02. This calculation is called the Ratio-Infection Index (RII). In some mice, LST-002 was administered i.v. at 20 mg/kg, 60 min after administration of Ka02. Further dosing of LST-002 (10 mg/kg) was given i.p. at time points+5 hr, +24 hr and +48 hr after infection.

[2] = single i.v. injection at 10 mg/kg; preliminary
[3] = system: MDR P. aeruginosa strain Ka02; test: "Sandwich" motility assay, Ka02; assay type: cell-based; details: LST-002 0.3-80 μg/ml, even at very low concentrations
Experimental: Using an alternative in-vitro motility technology, the effects of LST-002 on motility of a MDR P. aeruginosa (PA) strain (Ka02) was performed. In 10 cm plastic culture dishes, a 6 ml underlayer of 0.6% agar in LB was poured and allowed to solidify. During this period, 6 ml of LB was aliquoted into separate tubes to which LST-002 was added at final concentrations 80, 20, 5, 1.25, 0.3 and 0 μg/ml. Thereafter, 10 μA of bacterial culture (containing ˜20-100 cfu) was added followed by 6 mls of 0.6% agar in LB. This ˜12 ml solution was poured onto the solidified agar under-layer. Following solidification, a final upper layer comprising of 6 mls 0.6% agar in LB was added. Plates were transferred to an incubator at 37° C. for 18-22 hr to allow bacterial growth and swarming (i.e. motility) and the diameter of the bacterial colonies measured.

laboratory strain Pa01 = test: "Sandwich" motility assay, Pa01; assay type: cell-based, P. aeruginosa; details: LST-002 0.3-80 μg/ml, even at very low concentrations
[4] = system: flagellin type A strains (PA141, PA49, PA1, PA409 and PAK); test: Western blot of P. aeruginosa lysates, flagellin type A strains; assay type: binding; details: mAb 10 μg/ml
Experimental: (§1) The binding specificity of the chimeric LST-003 mAb was assessed in a western blot experiment as compared to the parental mouse LST-001 mAb. Two identical, yet separate nitrocellulose membranes containing a panel of blotted P. aeruginosa lysates of type A or B flagellin following electrophoresis were hybridized with either mouse LST-001 (FIG. 5A) or chimeric LST-003 (FIG. 5B) mAbs at identical final concentrations (10 μg/ml) with the ensuing detecting secondary peroxidase-conjugated antibodies being anti-mouse Fc or anti-human Fc respectively. Laboratory strains PAK (type A flagellin) or PA01 (type B flagellin) were included as appropriate controls whereas other strains represented multi-drug resistant (MDR) P. aeruginosa strains. […] FIG. 6 also depicts binding of LST-001, LST-002 and LST-003 to immobilized, whole P. aeruginosa as measured in an ELISA and confirms the western blot findings. See below in Example 7 for the ELISA protocol.

Ka02 (flagellin type B) = test: ELISA on formaldehyde-fixed Ka02; assay type: binding, P. aeruginosa; details: fixed whole bacteria ELISA, 1 nM mAb
Experimental: (§2) From a single fresh bacterial colony, PA strains 27853 (harboring flagellin type A) or Ka02 (harboring flagellin type B) were grown overnight in 5 ml LB at 37° C. Thereafter, bacterial cultures were centrifuged at 1500 g for 30 min and following removal of the clear supernatant, pellets were washed twice with 20 ml PBS with intervening centrifugation. The final pellet was resuspended in a volume of PBS (˜10 ml) and adjusted to generate an OD600 of ˜0.2 and maintained on ice prior to coating on ELISA plates which were prepared as follows: to the wells of flat-bottomed ELISA plates (Nunc, cat #442404), 50 μl poly-L-lysine (PLL, Sigma Cat # P-1524) of a 1 μg/ml solution was added and plates were incubated for 30 min at room temperature. Thereafter, non-adsorbed PLL was removed. Fifty μl of the appropriate bacterial suspensions from the different strains at 0.2 OD600 nm were added to the PLL-coated ELISA plates. In some wells, a “mixed-bacterial population” was added. To that end, 25 μl of PA 27853 and 25 μl of Ka02 bacterial suspensions were added to the same wells. […]
ELISA plates containing the fixed P. aeruginosa bacteria, were blocked by adding 200 μl PBS-10% FBS for 60 min at room temperature. […] Thereafter, signal was quenched with 50 μA 10% H2SO4 and plates read at 450 nm in a Microtiter plate reader (Anthos MultiRead 400).

[5] = target: P. aeruginosa flagellin type A (Pseudomonas aeruginosa, UniProt P21184); test: ELISA of LST-009 on recombinant flagellin type A; assay type: binding; details: 250 ng/well antigen
Sequence of P. aeruginosa flagellin type A (P21184 whole entry): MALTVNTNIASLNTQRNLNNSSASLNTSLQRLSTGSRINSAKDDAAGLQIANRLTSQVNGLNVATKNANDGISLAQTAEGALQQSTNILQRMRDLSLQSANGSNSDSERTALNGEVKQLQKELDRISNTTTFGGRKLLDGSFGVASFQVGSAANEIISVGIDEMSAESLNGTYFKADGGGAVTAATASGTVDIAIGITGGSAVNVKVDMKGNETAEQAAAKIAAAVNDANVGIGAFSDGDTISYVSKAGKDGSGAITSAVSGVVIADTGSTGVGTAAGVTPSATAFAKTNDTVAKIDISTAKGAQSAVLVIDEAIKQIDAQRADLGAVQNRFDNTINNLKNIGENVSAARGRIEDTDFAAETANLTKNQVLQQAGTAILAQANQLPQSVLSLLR
Experimental: Two hundred and fifty ng (250 ng) of P. aeruginosa flagellin type A or B (50 μl from 5 μg/ml) were dispensed into each well of ELISA plates (Nunc, cat #442404) and coating allowed to proceed for 2 hours at room temperature with gentle shaking. Plates were then blocked with 200 μl PBS-10% fetal bovine serum (FBS) overnight at 4° C.
To that end, following three washes with PBS-0.05% Tween-20, 50 μl of a goat anti-human IgG (Fc)-HRP (Cat # A80-104P; Bethyl, Tex., USA) was added at a dilution of 1:10,000 in PBS-10% FBS with incubation allowed to proceed for 60 min at room temperature. Following 3 separate washes with PBS-Tween-20 (0.05%) and gentle tapping of plates on paper towels to remove final traces of wash buffer, 50 μl TMB/E substrate solution (Cat #ES001-500 ml; Millipore) was added for 15 min at room temperature. Thereafter, signal was quenched with 50 μl 10% H2SO4 and plates read at 450 nm in a Microtiter plate reader (Anthos MultiRead 400).

[6] = target: T1, flagellin type B strains (PA21 and PA01) (Pseudomonas aeruginosa, UniProt P72151); test: Western blot of P. aeruginosa lysates, flagellin type B strains; assay type: binding; details: mAb 10 μg/ml
T1 construct: a panel of blotted P. aeruginosa lysates of type A or B flagellin; endogenous in cells; host or cells: P. aeruginosa strains PA21 (MDR isolate) and PA01 (laboratory strain)
T1 sequence (P72151 whole entry): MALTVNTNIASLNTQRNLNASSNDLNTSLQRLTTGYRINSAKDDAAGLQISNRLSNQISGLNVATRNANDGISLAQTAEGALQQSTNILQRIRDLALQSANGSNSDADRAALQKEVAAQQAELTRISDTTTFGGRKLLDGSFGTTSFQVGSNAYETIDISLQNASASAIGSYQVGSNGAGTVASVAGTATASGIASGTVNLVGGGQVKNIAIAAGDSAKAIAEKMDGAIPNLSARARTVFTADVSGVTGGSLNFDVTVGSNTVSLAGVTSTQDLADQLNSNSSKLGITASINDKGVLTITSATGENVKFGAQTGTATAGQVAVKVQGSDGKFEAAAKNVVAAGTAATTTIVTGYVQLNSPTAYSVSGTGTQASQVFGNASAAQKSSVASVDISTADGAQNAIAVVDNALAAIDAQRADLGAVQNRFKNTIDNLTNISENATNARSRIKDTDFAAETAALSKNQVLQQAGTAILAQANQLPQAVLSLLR
Experimental: as §1

[7] = system: mixed PA27853 and Ka02 bacteria; test: ELISA on mixed fixed bacteria; assay type: binding, P. aeruginosa; details: 1 nM mAb; wells coated with half the amount of each strain
Experimental: as §2
ELISA plates containing the fixed P. aeruginosa bacteria, were blocked by adding 200 μl PBS-10% FBS for 60 min at room temperature. […] Thereafter, signal was quenched with 50 μA 10% H2SO4 and plates read at 450 nm in a Microtiter plate reader (Anthos MultiRead 400). […]

[8] = system: P. Aeruginosa flagellin type A strain 27853; details: ELISA, LST-007 supernatant, LST-008 0.5 μg/ml
[9] = system: P. Aeruginosa strains harboring flagellin type B (Pa01, Ka01, Ka02, Ka03, Ka04, 25619, NCTC 10662); test: Whole-bacteria binding ELISA, flagellin type B strains; details: LST-007 supernatant, LST-008 0.5 μg/ml
Experimental: P. aeruginosa laboratory strains PAK (flagellin type A) and Pa01 (flagellin type B) were grown overnight, diluted to an OD of 0.3 and washed with PBS. Fifty μl bacteria were then plated onto ELISA plates pre-coated with 50 μl poly-L-lysine (1 μg/ml in PBS) which were blocked with PBS-10% fetal calf serum (FCS). Following overnight incubation with bacteria at 4° C., plates were washed with 0.9% saline-0.05% Tween-20 and incubated with 1:2 dilutions of LST-001, LST-002, LST-007 supernatant or purified LST-003 (˜2 μg/ml) for 2 hrs at room temperature. Following washing, secondary goat anti-mouse (LST-001, LST-002) or goat anti-human detecting antibodies (LST-003, LST-007) were added and coloration generated following the addition of TMB substrate and plates read for absorbance (405 nm) following addition of 10% H2SO4.

[10] = ipsilateral/contralateral lesion area, 20 mg/kg i.v. +60 min, 10 mg/kg i.p. +5, +24, +48 hr

For `C[C@@H](O)[C@H]1C(=O)N2C(C(=O)O)=C(SCCN=CN)C[C@H]12` [Imipenem], the “Final (sensitive/resistant call)” value [1] was “R”, the “Vitek (sensitive/resistant call)” value ([1]; calls of the two sites) was “R” and the “Animal survival at day 3” value (Ka02 (MDR P. aeruginosa)) was 30%. The “survivors at day 3” value (Ka02 (MDR P. aeruginosa)) was 6/20.

B1: LST-002: mouse monoclonal antibody of U.S. Pat. No. 4,834,976, specific to P. aeruginosa flagellin type B (antibody, V domains shown)
VH: EVMLVESGGGLVKPGGSLKLSCAASGFTFSTFTMSWVRQTPEKRLECVATINGGGGNTYYPDSVKGRFTISRDNAKNNLYLQMSSLRSEDTAFYFCSRLYGIYAMDYWGQGTSVTVSS
VL: MKSHTQVFVYMLLWLSGVEGDIVMTQSHIFMSTSVGDRVSITCKASQDVGSAVAWYQQKPGQSPKVLIYWTSTRHTGVPDRFAGSGSGTEFTLTISNVQSEDLADYFCQQYSSYPLTFGAGTKLELKR
For B1, the “Ratio-Infection Index (RII) day 5” value (MDR PA strain Ka02; [10]) was 1.09, the “Ratio-Infection Index (RII) day 7” value (MDR PA strain Ka02; [10]) was 0.96 and the “infection lesions in thigh muscle infected with Ka02” value (MDR PA strain Ka02; neutropenic mice) was “totally prevented infection lesions”. For the same molecule, the early plasma concentration [2] was ~200 µg/mL, the “size of bacterial colonies (motility)” value [3] was “significant reduction in the size of bacterial colonies” and the “Animal survival at day 3” value (Ka02 (MDR P. aeruginosa)) was 71.4%. The “increased survival as compared with untreated mice” value (Ka02 (MDR P. aeruginosa); day 3 / day 9 survival) was 700%, the “more efficacious in increasing survival than currently accepted treatment protocol (imipenem)” value (Ka02 (MDR P. aeruginosa); day 3 / day 9 survival) was 240% and the “survivors at day 3” value (Ka02 (MDR P. aeruginosa)) was 15/21. The “size of bacterial colonies (motility)” value (laboratory strain Pa01) was “significant reduction in the size of bacterial colonies”.

B2: LST-003 (antibody, V domains shown)
VH: MMVLSLLYLLTAIPGILSDVQLQESGPGLVKPSQSLSLPCSVTGYSITSGYYWNWIRQFPGNKLEWMGYIRYDGNNNYNPSLKNRISITHDTSKNQFFLKLNYVTTEDTATYYCARGLQFYFDSWGQGTTLTVSS
VL: MVLILLLLWVSGTCGDIVMSQSPSSLAVSGGEKVTMSCKSSQSLLNGSYQKHTLAWYQQKPGQSPKLLIYWASTRESGVPDRFTGSGSGTDFTLTISSVKAEDLAVYYCQQYYSYPWTFGGGTKLEIKR
modifications: human IgG1 constant domains lacking entries
In the case of B2, the “immunoblot reactivity to flagellin type A strains” value [4] is reported as “stronger binding”, the “binding to Ka02” value (Ka02 (flagellin type B)) is reported as “failed to bind Ka02” and the “EC50 towards P. aeruginosa flagellin type A” value [5] is reported as “approximately 65 ng/ml”. For the same molecule, the “immunoblot reactivity to flagellin type B strains” value [6] was “not flagellin type B” and the “OD as compared to FIG. 16 (full amount of bacteria)” value [7] was “approximately 50%”.

B3: LST-007: human IgM monoclonal antibody of U.S. Pat. No. 4,834,976, specific to P. aeruginosa flagellin type B (antibody, V domains shown)
VH: MDWTWRVFFLLAVAPGAHSQVRLVQSGTEVKKPGASVRVSCKASGYTFSNYYMYWVRQAPGQGLEWMAMINPSGGSTRYAQKFQGRVTMTRDTSTSTVYMELSSLRSEDTAVYYCARADSGSYFGYWGQGTLVTVSS
VL: MRVPAQLLGLLLLWLPGARCDIQLTQSPSFLSASVGDRVPITCRASQGISTHLAWYQQKPGKAPKLLIYAASTLQSGVPSRFSGSGSGTEFTLTISSLQPEDSATYYCQQLKSYPLTFGGGTKVEIKR
For B3, the “binding to whole bacteria harboring flagellin type A” value [8] was “not flagellin type A” and the “binding to whole bacteria harboring flagellin type B” value [9] was “specifically binds to all seven P. Aeruginosa bacteria strains tested”.
